Test results taken from article PMC12629592, “MCAK recognizes the nucleotide-dependent feature at growing microtubule ends” (eLife, 2025).

How the values were obtained:
[1] = target: tubulin from porcine brain, polymerised into microtubules (porcine) (UniProt P02550); assay: single-molecule TIRF microscopy; single-molecule localisation at growing microtubule ends (tubulin 12 μM): 1 nM GFP-MCAK with 1 mM ATP, 10 nM EB1-GFP or 1 nM XMAP215-GFP, each alone; apparent constants
[2] = target: tubulin from porcine brain, polymerised into microtubules (porcine) (UniProt P02550); assay: single-molecule TIRF microscopy; binding events at the growing plus-end (end region 162 nm FWHM) of dynamic microtubules (tubulin 16 μM) grown from immobilised GMPCPP seeds; 10 nM GFP-MCAK (10 nM K524A, 30 nM V298S); 1 mM ATP; BRB80 + 50 mM KCl, 2 mM GTP, 35°C; apparent constants, per tubulin dimer
[3] = target: the molecule itself; assay: SEC; Superose 6 Increase 5/150 GL; BRB80 with 50 mM KCl and 1 mM ATP
[4] = target: tubulin from porcine brain, polymerised into microtubules (porcine) (UniProt P02550); assay: single-molecule TIRF microscopy; binding events at the growing plus-end of dynamic microtubules (tubulin 16 μM); GFP-MCAK with 1 mM AMPPNP; apparent constants, per tubulin dimer
[5] = target: tubulin from porcine brain, polymerised into microtubules (porcine) (UniProt P02550); assay: single-molecule TIRF microscopy; binding events on the lattice of dynamic microtubules (tubulin 16 μM); GFP-MCAK with 1 mM AMPPNP
[6] = target: tubulin from porcine brain, polymerised into microtubules (porcine) (UniProt P02550); assay: single-molecule TIRF microscopy; binding events on the lattice of dynamic microtubules (tubulin 16 μM) grown from immobilised GMPCPP seeds; 10 nM GFP-MCAK (10 nM K524A, 30 nM V298S); 1 mM ATP; BRB80 + 50 mM KCl, 35°C; apparent constants, per tubulin dimer
[7] = target: tubulin from porcine brain, polymerised into microtubules (porcine) (UniProt P02550); assay: single-molecule TIRF microscopy; binding events at the growing plus-end of dynamic microtubules (tubulin 16 μM); GFP-MCAK with 1 mM ADP; apparent constants, per tubulin dimer
[8] = target: tubulin from porcine brain, polymerised into microtubules (porcine) (UniProt P02550); assay: single-molecule TIRF microscopy; single-molecule localisation at growing microtubule ends (tubulin 12 μM): 1 nM GFP-MCAK with 1 mM ATP, 10 nM EB1-GFP or 1 nM XMAP215-GFP, each alone; apparent constants; remark: listed apart in the source
[9] = target: tubulin from porcine brain, polymerised into microtubules (porcine) (UniProt P02550); assay: single-molecule TIRF microscopy; binding events at the growing plus-end of dynamic microtubules (tubulin 16 μM); GFP-MCAK without nucleotide (APO); apparent constants, per tubulin dimer
[10] = target: tubulin from porcine brain, polymerised into microtubules (porcine) (UniProt P02550); assay: single-molecule TIRF microscopy; binding events at the minus-ends of dynamic microtubules; GFP-MCAK, 1 mM ATP; BRB80 + 50 mM KCl, 35°C; apparent constants, per tubulin dimer

“EB1-GFP (from UniProt Q15691 1-268) (natural protein)” showed a Kd [1] of 722 µM.

B1: GFP-MCAK (mitotic centromere-associated kinesin, wild type) (enzyme, UniProt Q99661 1-725, looked up)
chain: MAMDSSLQARLFPGLAIKIQRSNGLIHSANVRTVNLEKSCVSVEWAEGGATKGKEIDFDDVAAINPELLQLLPLHPKDNLPLQENVTIQKQKRRSVNSKIPAPKESLRSRSTRMSTVSELRITAQENDMEVELPAAANSRKQFSVPPAPTRPSCPAVAEIPLRMVSEEMEEQVHSIRGSSSANPVNSVRRKSCLVKEVEKMKNKREEKKAQNSEMRMKRAQEYDSSFPNWEFARMIKEFRATLECHPLTMTDPIEEHRICVCVRKRPLNKQELAKKEIDVISIPSKCLLLVHEPKLKVDLTKYLENQAFCFDFAFDETASNEVVYRFTARPLVQTIFEGGKATCFAYGQTGSGKTHTMGGDLSGKAQNASKGIYAMASRDVFLLKNQPCYRKLGLEVYVTFFEIYNGKLFDLLNKKAKLRVLEDGKQQVQVVGLQEHLVNSADDVIKMIDMGSACRTSGQTFANSNSSRSHACFQIILRAKGRMHGKFSLVDLAGNERGADTSSADRQTRMEGAEINKSLLALKECIRALGQNKAHTPFRESKLTQVLRDSFIGENSRTCMIATISPGISSCEYTLNTLRYADRVKELSPHSGPSGEQLIQMETEEMEACSNGALIPGNLSKEEEELSSQMSSFNEAMTQIRELEEKAMEELKEIIQQGPDWLELSEMTEQPDYDLETFVNKAESALAQQAKHFSALRDVIKALRLAMQLEEQASRQISSKKRPQ
notes: MCAK (mitotic centromere-associated kinesin, kinesin-13); GFP-MCAK monomer printed as 110 kDa; Dimer by size-exclusion chromatography; Used with 1 mM ATP, AMPPNP, ADP or without nucleotide (APO); Purification adapted from Helenius et al., 2006; The printed residue numbers (K524, V298, T537) and the 110 kDa mass fit whole human MCAK (surmised); also called MCAK‧ATP; MCAK‧AMPPNP; source: Sf9, …
B1 was tested, and the Kd [2] was 69 µM, the dwell time [2] was 0.75 s and the effective dissociation constant (the microtubule end taken as one multivalent receptor, end length 160 nm) [2] was 260 nM. For the same molecule, the kon [2] was 22600 M⁻¹ s⁻¹, the “stoichiometry N” value [3] was 2 and the Kd [4] was 61 µM. For the same molecule, the RE/L (kon at the plus-end over kon on the lattice) [4] was 11, the dwell time [4] was 3.32 s and the dwell time [5] was 1.46 s. For the same molecule, the Kd [6] was 1060 µM, the dwell time [6] was 0.62 s and the kon [6] was 2800 M⁻¹ s⁻¹. For the same molecule, the Kd [7] was 163 µM, the RE/L (kon at the plus-end over kon on the lattice) [7] was 2 and the dwell time [7] was 0.46 s. For the same molecule, the dwell time of distally distributed molecules at the growing end [8] was 0.8 s, the dwell time of proximally distributed molecules at the growing end [8] was 0.7 s and the Kd [9] was 1.8 µM. It also gave an RE/L (kon at the plus-end over kon on the lattice) [9] of 2, a dwell time [9] of 1.89 s and a Kd [10] of 40 µM. The RE/L (kon at the end over kon on the lattice) [10] was 13.
